In paper PMC10653093:

Target: Recombinant human heterodimeric S100A8/A9 (human) (UniProt P05109)
Experiment: ELISA

Sequence of UniProt P05109 (P05109 whole entry, chain 1 of 2): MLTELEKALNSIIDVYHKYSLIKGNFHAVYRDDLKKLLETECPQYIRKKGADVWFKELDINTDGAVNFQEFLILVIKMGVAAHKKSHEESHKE
Sequence of UniProt P05109 (P06702 whole entry, chain 2 of 2, further chain): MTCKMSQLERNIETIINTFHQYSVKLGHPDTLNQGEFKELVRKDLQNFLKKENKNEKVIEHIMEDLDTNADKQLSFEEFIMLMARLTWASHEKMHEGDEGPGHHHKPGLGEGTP

Q: For “recombinant soluble GPIbα (His-17-Leu505) (domain or fragment)”, which EC50 is on record?
A: The EC50 was 130 nM.
